The results in this text go back to the DeepSol protein solubility set.

The nature of the data set: soluble on expression in E. coli; label from the status in PepcDB or PDB records.
In the case of “MNRCILLALLPLISAIPVAVNIDDQDAVNLGAYDRARFDLVESFHPLQPASAVTNDQIAEVRAKAAGVRQNEASISIDLPTQMLSGSSGRIPERLAFGEWTEWTSWSMCQNGERSRVRTCVSRKPALRVVCHGDAIEIEKCYVDAGEGHIPVAADPWSIEREISGDFA”, the “soluble on expression in E. coli” value is “not soluble”. With “MGSDKIHHHHHHMDKPFRRILLIKMRFHGDMLLTTPVISSLKKNYPDAKIDVLLYQDTIPILSENPEINALYGIKNKKAKASEKIANFFHLIKVLRANKYDLIVNLTDQWMVAILVRLLNARVKISQDYHHRQSAFWRKSFTHLVPLQGGNVVESNLSVLTPLGLDSLVKQTTMSYPPASWKRMRRELDHAGVGQNYVVIQPTARQIFKCWDNAKFSAVIDALHARGYEVVLTSGPDKDDLACVNEIAQGCQTPPVTALAGKVTFPELGALIDHAQLFIGVDSAPAHIAAAVNTPLISLFGATDHIFWRPWSNNMIQFWAGDYREMPTRDQRDRNEMYLSVIPAADVIAAVDKLLPSSTTGTSL”, the “soluble on expression in E. coli” value was “not soluble”.

For “MGSDKIHHHHHHMSQQEFDVLVIGAGISGAALFYELARYTNIKNIALIEKYNTAATLNSKGTSNSQTIHCGDIETNYTLEKARKVKRTADMIVKYGLMQNAQNNFMFSHQKMALAVGDIECDYMKKRYEEFKELYPYIKFFDKAKIKQIEPKVVLGEDCNQDRPENICAMGVESGEVFTTVDFGKMSINLIEQAQKQNKNTFVAFNQEIIHIEKKDDIFILKTSNHQEYHAKSVVVNAGAHSLYLAHKMNLGMDKSCWPVAGSFYLTKQKLLNGKVYMVQNPKLPFAALHGDPDLLADMNTRFGPTALVIPKLERYHGLKSVPEFFEALKLDKTVLKVTFNMFKDATIRNYIFYNYLFELPFVDKSLFVKDAKKIVPSLKASDIYYAKGFGGVRPQVIDKTKGELMLGEASITETPGIIFNMTPSPGATSCLGNAERDAKLVCNYLGMEFNEDKFSSELL”, the “soluble on expression in E. coli” value is given as “not soluble”. For “MTENNKLQTIEQQLVQEKNVSDNVLNKVRVLESQGNLELPNDYSPSNAMKQAWLQISQDNKLMSCNDTSKANALLDMVTQGLNPAKNQCYFIPYGNKMQLQRSYHGNVMMLKRDAGAQDVVAQVIYKGDTFKQEMGETGRIKAIKHEQDFFNIDKENIIGAYCTIVFNDGRDNYIEVMTIEQIKQAWMQSSMIKDEKALQNSKTHNNFKEEMAKKTVINRAAKRYINTSTDSNLFKYAQESEQRQRKEVLDAEVEENANQEQLDFEQPVLEEAQYTELENDKPIDVSDFEEIKEPATEKESEEEPF”, the “soluble on expression in E. coli” value is “not soluble”. Consider “SMVRLKKSFGQHLLVSEGVLKKIAEELNIEEGNTVVEVGGGTGNLTKVLLQHPLKKLYVIELDREMVENLKSIGDERLEVINEDASKFPFCSLGKELKVVGNLPYNVASLIIENTVYNKDCVPLAVFMVQKEVAEKLQGKKDTGWLSVFVRTFYDVNYVMTVPPRFFVPPPKVQSAVIKLVKNEKFPVKDLKNYKKFLTKIFQNRRKVLRKKIPEELLKEAGINPDARVEQLSLEDFFKLYRLIEDSGE”, for which the “soluble on expression in E. coli” value is recorded as “soluble”.

For the sequence “MEAHGSARLSRKRKRDGSNGEPEEGEKPLKFKRCTVGLKYPAPYADQLESMEDKQYQRVTIEEARRGTPPDRPVRVYADGIFDMFHSGHARALMQAKCLFPNTHLIVGVCSDDLTHKLKGFTVMNEDERYDAVSHCRYVDEVVRNAPWTLTPEFLTKHRIDFVAHDDIPYSSADSDDVYKHIKDAGMFAPTQRTEGISTSDIITRIVRDYDVYVRRNLQRGYTAKELNVSFINEKKYNLQERVDKVKKKVKDVEEKSKEFVQKVEEKSIDLIQKWEEKSREFIGNFLQMFGPEGALKHMLKEGKGRMLQAISPRQSPSSSPTRERSPSPTFRLPFFNKTSTPSSPSSHHSSALSGYTYAARGQAISEDEEDDED”, the “soluble on expression in E. coli” value is listed as “soluble”. Turning to “MKSLSALEAEQWITIRSIFLIDLPFRSFSFSLPAEEKQDLQCNLQNLVNHNFSFLQVIHLQVSHINDADVLTGLNGRIGSFLLPSIATGTGTATGTAATTGASAITASSRSRRILGDEFEDHVIVPATCGSRAVVGKPQRIIDLETKVDTSNIPHRTVLFLFHTGTSKRGIENPQAVNLHLIPCYEHLLHRADKGLHHMLHIFHRKRTDRLDLTRQRLDRIKFRFPRLGFEHIHHRRFVITNLFFALIAHHRHCCHTEFVLKKRRTFSLSVGETKIRQCTGNFPDYDGLCRTMTG”, the “soluble on expression in E. coli” value is on record as “not soluble”. Take “GKAVIAIHGGAGAISRAQMSLQQELRYIEALSAIVETGQKMLEAGESALDVVTEAVRLLEECPLFNAGIGAVFTRDETHELDACVMDGNTLKAGAVAGVSHLRNPVLAARLVMEQSPHVMMIGEGAENFAFARGMERVSPEIFSTSLRYEQLLAARKEGATVLDHSGAPLDEKQKMGAVGAVALDLDGNLAAATSTGGMTNKLPGRVGDSPLVGAGCYANNASVAVSCTGTGEVFIRALAAYDIAALMDYGGLSLAEACERVVMEKLPALGGSGGLIAIDHEGNVALPFNTEGMYRAWGYAGDTPTTGIYREKGDTVATQ”: the “soluble on expression in E. coli” value is on record as “soluble”.

For “SNAEQVRQAGIDDIGGILELIHPLEEQGILVRRSREQLEQEIGKFTIIEKDGLIIGCAALYPYSEERKAEMACVAIHPDYRDGNRGLLLLNYMKHRSKSENINQIFVLTTHSLHWFREQGFYEVGVDYLPGAKQGLYNFQRKSKILALDL”, the “soluble on expression in E. coli” value is given as “soluble”.

“MGSDKIHHHHHHMATGTLPDAGQILNSLINSILLVDDDLAVHFANPAAQQLLAQSSRKLFGTPLPELLSYFSLNIGLMQESLQAGQGFTDNEVTLVIDGRSHILSLTAQRLPEGFILLEMAPMDNQRRLSQEQLQHAQQVAARDLVRGLAHEIKNPLGGLRGAAQLLSKALPDPALTEYTKVIIEQADRLRNLVDRLLGPQHPGMHVTESIHKVAERVVKLVSMELPDNVKLIRDYDPSLPELPHDPDQIEQVLLNIVRNALQALGPEGGEIILRTRTAFQLTLHGVRYRLAARIDVEDNGPGIPPHLQDTLFYPMVSGREGGTGLGLSIARSLIDQHSGKIEFTSWPGHTEFSVYLPIRK”: the “soluble on expression in E. coli” value is on record as “not soluble”.

Consider “MGSDKIHHHHHHADNAPAKVQTALKKMYPKADGIAWSQDGGYYCADFMMNGYEKNVWFNAQGQWQMTQTEWGDTDELSATVYNAYASGPYSGWQVEDVTYVEFPKWQPIIVIKVGQQNVDIQYQLFYSPNGTLLRTRNVSYMGDILGPGTFL”, for which the “soluble on expression in E. coli” value was “not soluble”. Consider “MSPTLQDARLLWDFLGQGRCHVPCELLVVCGSYDLRVCDHACELLERGLAERLLFTGNTGHWTRHLWVEPEAELFARHARARGVSDSLIVIEPRATNFAENIAFARELFPDLRRATFVTKPNSIRRVALTLPVRWPGLEGHVDAPDYAFPDGISNLVGVLGVIDEMVGDLDRIMRYPALGFQVACPIPAQVMDAWERLVARGFDRHLVNPPRLEHHHHHH”, for which the “soluble on expression in E. coli” value was “soluble”. With “MGSDKIHHHHHHMNALPKLNQLRNLRAIIQHGNISAAAQMLHQTQSTLTRSIQELEKTLGVTLLDRGMNSTVLTKAGMMFEPRMNLILNELERAVDELRQIEKLSDGKIAFGCSHFPATSIVPDVIKKFQERHNSTRITIIEGQLSELLSSLRMGKLDFFIGVVSSDLMLNEFVEERLTSCSFSVVARKGHPLANSTSLAELQAAKWYIPAASHGYYSDLETVIFPNGVKSCGSVIFGDSSAIARKLVLNEDYLFVGPRPMFLAPHHKDLISIIPIKDKLPEGHYSLISPRNKKLTPAALNLVNEIRFAYFDFIKSHS”, the “soluble on expression in E. coli” value is given as “not soluble”. Regarding “MKSADLIIIGGGMVGLALAGLLKDSPCQIKIIEKSAPKTQKYYANRVSAINTASEKMLQQLGVFEHIPTDAYTDYQKIIVSEKDSFAKIEFDNNDLAIKQLGLTQLGLIIANSQLQQALWQQVSQQKNVEIILSTPKTIGISESGAFLTLENGEMLAGKLVVGADGAHSWLRNQINIPLISQDYQQTALVCCVETAEPHNNIARQIFGPDSILAFLPLADKNQCSIVWSLPPDQANKLTTCDEQQFNQALTIAFDYQLGLVKLQDSRKIYPLTARYARDFAQMRIALIGDAAHTIHPLAGLGVNLGFADAITLAEQIKLHLAAAHDIGEYRHLRYFERTRKTETIKLLAAMEGLKQLFSGNNPLKKLIRGIGLVGTNHFSAIKKRLIEQVVNILEHHHHHH”, the “soluble on expression in E. coli” value is given as “soluble”. With “MSLADHIDAIKKEMTSLSSQFNSNKSELERSKQDLSSMQLQMQQQMNDSVQQDLQKAHDTSKKLDNLARTFLALITDPSQQSQLLAEFESISKNGTPQMPVMTPPMMNAVAAMQPHMMMRNPMLNAMGGASPRVSGKGGAPQNGGMNGMSMMQHMQMQAFQAQMMQAQMFQQMPMMMPGMVPGMPPGMAGLPGMMPPNNMAAAMQHFNAQMAAAASVAVSTPSRNPSTSGAASRTRTPLTTSATNSPRPTTEPTIKEEEPQTMEHDVAAAVAATTATATIKQEENSTVAVA”, the “soluble on expression in E. coli” value is on record as “not soluble”. For the sequence “MGSDKIHHHHHHMQPTYNIDNPNLSYEAKRDLWRIGFGLQKVDNLVPSAYMESLAEKQSRGELTYEQVYEDATAYHHTIDASTEEADLVSLRIVELLSRRGFSFSPAILLAIHKELFQDIFEPSIPVGQFRQTNITKNEPVLNGESVVYSDYSMIQMTLDYDFNQEKQVAYATLTQADMVKKIQHFISGIWQIHPFREGNTRTVTVFLIQYLREFGFDIDNTPFQQHSKYFRDALVLDNAKILQRRPEFLTAFFENLLLGGQNDLSSEKMYLDLDLDLS”, the “soluble on expression in E. coli” value is “not soluble”. The same measure for “MAHHHHHHMAPGVIPTVFRSERDREWAAQRFNYKKGSDDEERVARKRLLFARDRVHLPDDTVVETIRSPTEQLEELRALREHPPMHLLSEQLNSIAEESHRYAAALAAAAAAQPADPKDVASPASLRSDAAATSSLDGVALPPLPGAAAVVSSPPQVEIQFEDRSLFATAAILFRDRDDRVVRAMRFIGACGMVWKEVA”: “soluble”; for “MKQITGVYTAPRPHWVGDGFPVRSLFSYQSHAQQLSPFLLLDYAGPHTFTPGNEKRGVGEHPHRGFETVTIVYSGEVEHRDSTGRGGVIGPGDVQWMTAGAGILHEEFHSDAFTRRGGELEMVQLWVNLPMKDKMTTPGYQSITHDVIPTVTLPDNAGVVRVIAGRYEETKGPAHTFSPLNVWDMRLQRNRQLTLAQPEGWSTALVVLKGNITVNGTTPVNEAQLVVLSQQGKTLHLEASSDASVLLLSGEPLNEPIVGYGPFVMNTKQEIAEAVRDFNSGRFGQI”: “not soluble”; for “MGFADFFKNFKINKLRTAPSKEEQPSHWVKCPKCYALMYHKEVFSKYSVCLKCHYHFRMKAAERIEFLCDVGSFEEFDKHLRPNDPLNFVDKESYKQRIKKYEKRTNRPSSVISGEAKINRMPLQIVVFDFSFMGGSLGSVEGEKIVRAINRAVAKREALLIVSASGGARMQESTYSLMQMAKTSAALNRLSEAKLPFISLLSDPTYGGVSASFAFLGDLIIAEPGAMIGFAGPRVIKQTIGADLPEGFQTAEFLLEHGLIDMIVHRKDLKKTLSDLIAMMTHKTSKIFLEHHHHHH”: “soluble”. Turning to “MSQQELFFEVRRNRSHIYLDAEESHSVMELKLMLAGITRDPVNHMELWKLDEDGNKSQLLHDTATLSDAGFSSTNAKAQCPAALGLRLTNAEEHLTISDVSTAPPIPDTMRQEQAPQE”, the “soluble on expression in E. coli” value is listed as “not soluble”. As to “GPGSMKNISNKRIIKDLKLLLEEVDANNEANSSGSPHSAAIFSVHTDTIYNWILKVKAPADSVYGGAGNTYQLSVLFSEDYPHEPPTVRFVTPVYSPLVTEEGGICDRMVNDVWTPDQRASDVIKLVLDRVFSQYKNHSDDDVNPEARHYLEKFPQEFAARVRRGG”, the “soluble on expression in E. coli” value is reported as “soluble”.
